Here are results for two molecules from patent US20230265164A1 (MIT, published 2023).

As usually defined, the Kd is the constant that tells how readily two partners part at equilibrium. Low values mean a tighter complex, high ones a looser complex.

Assay [1] deals with T1, CCL25 (UniProt O15444 24-150, limits assumed).
T1 sequence (looked up): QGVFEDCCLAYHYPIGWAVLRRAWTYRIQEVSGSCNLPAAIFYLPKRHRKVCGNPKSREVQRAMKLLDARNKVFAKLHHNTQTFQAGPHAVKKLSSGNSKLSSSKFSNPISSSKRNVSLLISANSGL
As to the kind of experiment: MicroScale Thermophoresis; 5 nM NT647-labeled receptor-Fc against a ligand gradient, 25 C. On the procedure: (§1) MicroScale Thermophoresis (MST) is an optical method detecting changes in thermophoretic movement and TRIC of the protein-attached fluorophore upon ligand binding. Active labelled proteins contribute to the thermophoresis signal upon ligand binding. […] Herein ligand binding experiments were carried out with 5 nM NT647-labeled protein in 1×PBS, 10 mM DTT buffer with different concentration of arginine, against a gradient of respective ligands on a Monolith NT.115 pico instrument at 25° C. Synthesized receptors were labeled with Monolith NT™ 2nd generation protein labeling kit RED-NHS (NanoTemper Technologies) so as to obtain unique fluorescent signals. MST time traces were recorded and analyzed to obtain the highest possible signal-to-noise levels and amplitudes, >5 Fnorm units. The recorded fluorescence was plotted against the concentration of ligand, and curve fitting was performed using the Kd fit formula derived from the law of mass action. For clarity, binding graphs of each independent experiment were normalized to the fraction bound (0=unbound, 1=bound). MST experiments were performed in the Center for Macromolecular Interactions at Harvard Medical School.

Assay [2] addresses T2, IL8 (UniProt P10145 28-99, limits assumed).
T2 sequence (looked up): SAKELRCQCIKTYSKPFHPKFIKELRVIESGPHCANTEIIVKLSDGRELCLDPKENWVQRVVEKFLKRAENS
Described as above. On the procedure:
as §1

B1: CCR9^QTY-Fc (Fc fusion)
chain: MTPTDFTSPIPNMADDYGSESTSSMEDYVNFNFTDFYCEKNNVRQFASHYQPPQYWQTYTTGAQGNSQTTQTYWYCTRVKTMTDMYQQNQATADQQYQTTQPYWATAAADQWKFQTFMCKTTNSMYKMNYYSCTQQTMCTSTDRYTATAQAMRAHTWREKRQQYSKMTCYTTWTQAAAQCTPETQYSQIKEESGIAICTMVYPSDESTKQKSATQTQKTTQGYYQPYTTMACCYTTTTHTQTQAKKSSKHKAQKTTTTTQTTYTQSQYPYNCTQQTQTTDAYAMFISNCATSTNTDTCYQTTQTTAYYHSCQNPTQYTYTGERFRRDLVKTLKNLGCISQAQWVSFTRREGSLKLSSMLLETTSGALSLTETSQVAPAHHHHHHHHHHTETSQVAPAHHHHHHHHHHGSKLVDPRGPTIKPCPPCKCPAPNLLGGPSVFIFPPKIKDVLMISLSPIVTCVVVDVSEDDPDVQISWFVNNVEVHTAQTQTHREDYNSTLRVVSALPIQHQDWMSGKEFKCKVNNKDLPAPIERTISKPKGSVRAPQVYVLPPPEEEMTKKQVTLTCMVTDFMPEDIYVEWTNNGKTELNYKNTEPVLDSDGSYFMYSKLRVEKKNWVERNSYSCSVVHEGLHNHHTTKSFSRTPGK
modifications: NT647 (RED-NHS) fluorescent dye on lysines/N-terminus in the MST assay; positions not given.
B1 displayed a Kd in assay [1] of 37.2 nM.

B2: CXCR2^QTY-Fc (Fc fusion)
chain: MEDFNMESDSFEDFWKGEDLSNYSYSSTLPPFLLDAAPCEPESLEINKYYTTTTYAQTYQQSQQGNSQTMQTTQYSRVGRSVTDTYQQNQAQADQQYAQTQPTWAASKVNGWIFGTFLCKTTSQQKETNYYSGTQQQACTSTDRYLAIVHATRTLTQKRYLVKYTCQSTWGQSQQQAQPTQQYRRTVYSSNVSPACYEDMGNNTANWRMQQRTQPQSYGYTQPQQTMQYCYGFTLRTLFKAHMGQKHRAMRTTYATTQTYQQCWQPYNQTQQADTLMRTQVIQETCERRNHIDRAQDATETQGTQHSCQNPQTYAYTGQKFRHGLLKILAIHGLISKDSLPKDSRPSFVGSSSGHTSTTLTETSQVAPAHHHHHHHHHHGSKLVDPRGPTIKPCPPCKCPAPNLLGGPSVFIFPPKIKDVLMISLSPIVTCVVVDVSEDDPDVQISWFVNNVEVHTAQTQTHREDYNSTLRVVSALPIQHQDWMSGKEFKCKVNNKDLPAPIERTISKPKGSVRAPQVYVLPPPEEEMTKKQVTLTCMVTDFMPEDIYVEWTNNGKTELNYKNTEPVLDSDGSYFMYSKLRVEKKNWVERNSYSCSVVHEGLHNHHTTKSFSRTPGK
modifications: NT647 (RED-NHS) fluorescent dye on lysines/N-terminus in the MST assay; positions not given.
notes: also called CXCR29QTY-Fc
The molecule B2 registered a Kd in assay [2] of 60.3 nM.
